Results from publication PMC8376927, “14-3-3 proteins inactivate DAPK2 by promoting its dimerization and protecting key regulatory phosphosites” (Communications Biology, 2021).
Positions count from the first letter of the chain named. Non-standard residues stand in square brackets, D forms with d. No end group written: not given here. *: point of attachment. 5FAM = O=C1OC2(c3ccc(O)cc3Oc3cc(O)ccc32)c2ccc(C(=O)*)cc21; pT = C[C@@H](OP(=O)(O)O)[C@H](N)C(=O)O

B1: Human 14-3-3γΔC (residues 1-235 lacking the C-terminal 13-residue-long flexible tail) (domain or fragment, UniProt P61981 1-235, looked up)
chain: MVDREQLVQKARLAEQAERYDDMAAAMKNVTELNEPLSNEERNLLSVAYKNVVGARRSSWRVISSIEQKTSADGNEKKIEMVRAYREKIEKELEAVCQDVLSLLDNYLIKNCSETQYESKVFYLKMKGDYYRYLAEVATGEKRATVVESSEKAYSEAHEISKEHMQPTHPIRLGLALNYSVFYYEIQNAPEQACHLAKTAFDDAIAELDTLNEDSYKDSTLIMQLLRDNLTLWTS
notes: 14-3-3 protein gamma, human, residues 1-235 (C-terminally truncated)
B2: Human 14-3-3γ WT (natural protein, UniProt P61981 1-247, looked up)
chain: MVDREQLVQKARLAEQAERYDDMAAAMKNVTELNEPLSNEERNLLSVAYKNVVGARRSSWRVISSIEQKTSADGNEKKIEMVRAYREKIEKELEAVCQDVLSLLDNYLIKNCSETQYESKVFYLKMKGDYYRYLAEVATGEKRATVVESSEKAYSEAHEISKEHMQPTHPIRLGLALNYSVFYYEIQNAPEQACHLAKTAFDDAIAELDTLNEDSYKDSTLIMQLLRDNLTLWTSDQQDDDGGEGNN
notes: 14-3-3 protein gamma, human, wild type; it speaks of the protein as a dimer
B3: FAM-ctDAPK2-pT369 peptide (FAM-RRRSSpTS) (peptide)
peptide: 5FAM-RRRSS[pT]S
notes: source: synthetic peptide (Pepscan Presto BV)
B4: DAPK2_RNTD, full-length human DAPK2 mutant with the C terminus S367STS370 changed to R367NTD370, autophosphorylated (enzyme)
chain: MFQASMRSPNMEPFKQQKVEDFYDIGEELGSGQFAIVKKCREKSTGLEYAAKFIKKRQSRASRRGVSREEIEREVSILRQVLHHNVITLHDVYENRTDVVLILELVSGGELFDFLAQKESLSEEEATSFIKQILDGVNYLHTKKIAHFDLKPENIMLLDKNIPIPHIKLIDFGLAHEIEDGVEFKNIFGTPEFVAPEIVNYEPLGLEADMWSIGVITYILLSGASPFLGDTKQETLANITAVSYDFDEEFFSQTSELAKDFIRKLLVKETRKRLTIQEALRHPWITPVDNQQAMVRRESVVNLENFRKQYVRRRWKLSFSIVSLCNHLTRSLMKKVHLRPDEDLRNCESDTEEDIARRKALHPRRRRNTD
modifications: phosphothreonine at 369 (stoichiometrically autophosphorylated); autophosphorylated Ser318 (the peptide with Ser318 carried one or two phosphoresidues)
notes: Death-associated protein kinase 2 (DAPK2, DRP-1), human, full length; Cloned into modified pRSFDuet-1 (BamHI, NotI)
B5: DAPK2 WT, full-length human DAPK2, autophosphorylated (enzyme)
chain: B4 chain with R367S, N368S, D370S
modifications: autophosphorylated at Ser318 and at two additional sites, at least, within the C-terminal 14-3-3-binding motif
notes: Death-associated protein kinase 2 (DAPK2, DRP-1), human, full length
B6: DAPK2_RNTD S318A (enzyme)
chain: B4 chain with S318A
notes: Death-associated protein kinase 2 (DAPK2), human, full length, made from DAPK2_RNTD

Legend:
[1] = target: the molecule itself; experiment: crystal structure; binary complex 14-3-3γΔC:ctDAPK2-pT369 mixed 1:1.2; hanging drop, 290 K; space group R3; 2.7 Å
[2] = target: B4; experiment: AUC; sedimentation velocity, 10-molar excess of 14-3-3γ over DAPK2_RNTD; 20 °C; conditions: both partners purified
[3] = target: B4; experiment: AUC; sedimentation velocity, mixtures of 6 μM DAPK2_RNTD and 0.6-60 μM 14-3-3γ; 20 °C; 50 mM HEPES-NaOH pH 7.5, 150 mM NaCl, 1 mM TCEP; conditions: both partners purified
[4] = target: B4; experiment: AUC; sedimentation velocity, 10-molar excess of DAPK2_RNTD over 14-3-3γ; 20 °C; conditions: both partners purified
[5] = target: B1; experiment: fluorescence polarisation; 14-3-3γ (160 µM and binary dilution series) incubated 1 h with 50 nM FAM-labelled peptide; 20 mM HEPES-NaOH pH 7.4, 150 mM NaCl, 0.1% Tween 20, 0.1% BSA; one-site-binding model; apparent KD; conditions: both partners purified
[6] = target: T1, dansyl-labeled rat calmodulin (DANS-CaM) (rat, UniProt P0DP29 1-149, dansyl label (dansyl chloride; site not stated)); experiment: time-resolved fluorescence intensity and anisotropy decay; 25 μM DANS-CaM, 30 μM DAPK2, with or without 100 μM 14-3-3γ; 23 °C; 20 mM HEPES-NaOH pH 7.5, 150 mM NaCl, 1 mM CaCl2, 1 mM TCEP; conditions: both partners purified
T1 construct: calmodulin, rat; Measured with 1 mM CaCl2; also called DANS-Ca^2+/CaM; dansyl-Ca^2+/CaM

[7] = target: T2, rat calmodulin protein (Ca2+/CaM) (rat, UniProt P0DP29 1-149); experiment: AUC; sedimentation velocity, 50 μM mixture of DAPK2_RNTD with Ca2+/CaM (1:1 molar ratio) compared with 50 μM DAPK2_RNTD alone; 20 °C; conditions: both partners purified
T2 construct: calmodulin, rat; also called rat CaM

B1: binds [1].

B2 was tested, and the “stoichiometry N” value [2] was 2 14-3-3γ per DAPK2 (printed 2:1), the Kd [3] was less than 100 nM and the “stoichiometry N” value [4] was 1 14-3-3γ per DAPK2 (printed 2:2).

For B3, the Kd [5] was 161 ± 7 nM.

B4: binds [6]; binds [7].

B5: binds [6].

B6: binds [6].
